The target of the assay is T1, PD-1-mFc (人PD-1胞外区加Fc纯化标签) (human, UniProt Q15116 25-170).
T1 construct: extracellular domain;domain: Fc; also called PD-1抗原; PD-1蛋白; not shown: mFc, Fc purification tag (mouse Fc)
Nature of the assay: competition ELISA, PD-1-mFc coated, competitor PDL-1-hFc.

T1 sequence (Q15116 25-170): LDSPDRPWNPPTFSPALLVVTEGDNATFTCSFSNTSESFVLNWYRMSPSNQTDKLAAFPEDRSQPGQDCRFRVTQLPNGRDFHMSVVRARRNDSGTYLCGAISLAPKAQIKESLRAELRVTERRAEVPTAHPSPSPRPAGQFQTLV

B1: 双特异性抗体Vs3P4 (dsFv-VEGF-linker-PD1-H chain结构) (bispecific antibody, human IgG4 S228P, kappa)
heavy: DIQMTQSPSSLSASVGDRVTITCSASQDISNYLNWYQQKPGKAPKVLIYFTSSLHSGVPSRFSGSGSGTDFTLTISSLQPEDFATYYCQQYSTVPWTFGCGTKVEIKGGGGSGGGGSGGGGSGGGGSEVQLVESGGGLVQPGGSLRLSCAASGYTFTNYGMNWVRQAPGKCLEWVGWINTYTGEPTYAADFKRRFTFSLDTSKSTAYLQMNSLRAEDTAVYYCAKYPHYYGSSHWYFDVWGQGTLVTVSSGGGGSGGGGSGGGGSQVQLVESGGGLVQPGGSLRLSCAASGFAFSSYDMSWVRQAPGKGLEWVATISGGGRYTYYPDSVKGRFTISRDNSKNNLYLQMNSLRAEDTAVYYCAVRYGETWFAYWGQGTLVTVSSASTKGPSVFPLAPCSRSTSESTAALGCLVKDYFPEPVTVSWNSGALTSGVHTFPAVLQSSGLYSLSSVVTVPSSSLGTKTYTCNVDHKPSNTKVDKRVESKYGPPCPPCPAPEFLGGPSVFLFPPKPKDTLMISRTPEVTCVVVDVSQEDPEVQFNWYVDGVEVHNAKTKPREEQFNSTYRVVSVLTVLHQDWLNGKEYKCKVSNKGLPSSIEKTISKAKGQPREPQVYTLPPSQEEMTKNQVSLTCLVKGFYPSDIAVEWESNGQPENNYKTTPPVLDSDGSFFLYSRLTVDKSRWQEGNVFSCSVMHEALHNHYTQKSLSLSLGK
light: DIQMTQSPSSLSASVGDRVTITCRASQDINTYLAWFQQKPGKAPKSLIYRANRLVSGVPSRFSGSGSGTDFTLTISSLQPEDMATYYCLQYDEFPLTFGAGTKLELKRTVAAPSVFIFPPSDEQLKSGTASVVCLLNNFYPREAKVQWKVDNALQSGNSQESVTEQDSKDSTYSLSSTLTLSKADYEKHKVYACEVTHQGLSSPVTKSFNRGEC
notes: Expressed in 293F cells; also called 抗VEGF-抗PD1双特异性抗体
Regarding B1, the binding result is “binds”.

(Values after patent CN110563849A (ANHUI RUBIOX VISION BIOTECHNOLOGY CO LTD, dated 2019).)
